Reference: publication PMC13480635

Tests used:
[1] = molecular target: Trypanosoma brucei gambiense variant surface glycoprotein LiTat 1.3 (Lille Trypanozoon antigen type 1.3) (Trypanosoma brucei gambiense); assay: SEC-MALS; Agilent Bio SEC-3 column, PBS; samples at 0.5 mg/mL and 5 mg/mL, 50 uL injected
[2] = molecular target: Trypanosoma brucei gambiense variant surface glycoprotein LiTat 1.3 (Lille Trypanozoon antigen type 1.3) (Trypanosoma brucei gambiense); assay: SAXS; SEC-SAXS, Shodex KW404-4F column, 20 mM HEPES, 150 mM NaCl, 3% glycerol, pH 7.4; 50 uL at 15.51 mg/mL injected; curve from the first (major) elution peak

“Trypanosoma brucei gambiense variant surface glycoprotein LiTat 1.3 (Lille Trypanozoon antigen type 1.3) (natural protein)” showed a stoichiometry N [1] of 3 and a stoichiometry N [2] of 3.
